For orientation: Kd means the free concentration of one partner at which half of the binding sites on the other are occupied at equilibrium, for simple one-to-one binding. Low values mean a tighter complex, high ones a looser complex.

The labels stand for the following.
T1: Soluble mouse EPOR chimera protein (R&D Systems) (mouse, UniProt P14753 25-249)
T1 construct: extracellular domain; Bought from R&D Systems; Amine-coupled to the SPR chip; also called erythropoietin receptor
T1 sequence (looked up): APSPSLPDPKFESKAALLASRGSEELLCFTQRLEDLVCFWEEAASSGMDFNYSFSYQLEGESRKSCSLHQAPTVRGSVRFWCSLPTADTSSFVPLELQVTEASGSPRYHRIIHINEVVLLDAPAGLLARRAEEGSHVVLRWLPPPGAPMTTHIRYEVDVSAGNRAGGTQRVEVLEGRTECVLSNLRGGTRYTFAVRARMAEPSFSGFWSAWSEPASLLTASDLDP

B1: ML1 (peptide)
peptide: LQLHVDKAVSGLRSLTTLLRALG
notes: Synthetic monomer made by solid phase peptide synthesis; also called erythropoietin-derived peptide ML1

The first experiment deals with T1, Soluble mouse EPOR chimera protein (R&D …). In words: SPR, mouse EPOR chimera amine-coupled to chip, peptide as analyte. The method, then:
The SPR technique is to measure interactions between biomolecules in real-time by using an optical principle without specific labeling, and is a system analyzing affinity between two molecules and kinetics, i.e., an association rate (Ka) and a dissociation rate (Kd).
In detail, real-time SPR analysis was performed using Reichert SPR Biosensor SR 7500C instrument (Reichert Inc., NY, USA). Soluble mouse EPOR chimera proteins (R&D Systems, Minneapolis, Minn., USA) were covalently linked to a carboxymethylated dextran matrix-coated chip (BR-1005-39, Pharmacia Biosensor AB) by an amine coupling procedure using an amine coupling kit (BR-1000-50, GE Healthcare, USA) in accordance with manufacturer's instructions. […] For signal normalization, DMSO was applied at a flow rate of 5 μl/minute, and after each binding cycle, the sensor chip was regenerated by injecting 25 mM acetic acid at a flow rate of 20 μl/minute.
(Surface plasmon resonance follows binding to a sensor surface in real time, without labels.)
Consider KGLRSLISLLRALGAQKEAI (Synthetic monomer) [ML6-1], for which the Kd was found to be 158 µM.

As to SGLRSLTTLLRALGAQKEAI (Synthetic monomer) [ML6], the equilibrium dissociation constant (Kd) was 900 µM.

In turn, RHVQKAESGLRSLTKLLREL (Synthetic monomer) [ML2-1] displayed a Kd of 14.3 µM.

Consider LQLHVLKRVSGLLSHTMLLKALG (Synthetic monomer) [ML1-1], for which the Kd was determined as 1.06 µM.

Take DKAVSGLRSLTTLLRAL (Synthetic monomer) [ML8]: binding was characterised by a dissociation constant (Kd) of 444 µM.

As for KKAVSGLKTLTHILRALGAQKEAI (Synthetic monomer) [ML4-1], the Kd is approximately 39.3 µM.

Molecule B1 had a Kd of 6.46 µM.

In turn, SGLRSLTTLLRALG (Synthetic monomer) [ML5] yielded a Kd of 0.329 µM.

In the case of AGLRSRAHLRRALA (Synthetic monomer) [ML5-1], binding was put at a Kd of 78.3 µM.

TKVNFYAWKR (Synthetic monomer) [ML3] showed a Kd of 14.6 µM.

Molecule DKAVSGLRSLTTLLRALGAQKEAI (Synthetic monomer) [ML4] registered a dissociation constant Kd of 10 µM.

As to TRVNYQAWKR (Synthetic monomer) [ML3-1], binding was put at a Kd of 4.31 µM.

Consider LHVDKAVSGLRSLTTLLRAL (Synthetic monomer) [ML2], for which the Kd is 273 µM.

NKAVAGLRSLTVN (Synthetic monomer) [ML8-1] registered a dissociation constant (Kd) of 2370 µM.

Molecule DEALDLEVDKAATGLRTLTTLIRAL (Synthetic monomer) [ML7-1] came in with a dissociation constant (Kd) of 63.7 µM.

The target is the same in another experiment. The description is as above. This is another data set of the same source.
In turn, LQLHVLKAVSGLLTHTTLLKALG [ML1-H1] returned a dissociation constant (Kd) of 7.85 µM.

Turning to B1, the Kd was determined as 6.46 µM.

For the molecule LDLEVDKAVSGLRSLTTLLRALG (Charge-modified variant of ML1) [ML1-C1], the Kd was 150 µM.

LQRHVDKRVSGLRSLTTLLRALG (Charge-modified variant of ML1) [ML1-C2] yielded a dissociation constant Kd of 11.8 µM.

In turn, LQRHVKKRVKGLKSLTTLLRALG (Charge-modified variant of ML1) [ML1-C3] returned a Kd of 9.83 µM.

As to LQLHVLKAVSGLLTLTMIRRALG [ML1-H2], the dissociation constant Kd was 0.307 µM.

LQLHVLKAVAGLRTLAMIRRALA [ML1-H3] had an equilibrium dissociation constant (Kd) of 1.15 µM.

The values above are taken from patent publication US20210340206A1 (SYLUS, published 2021).
